# From doi:10.1101/2021.09.12.459413
# Biological target: freshly isolated human LDL (human)
# Test: ELISA
binder,measurement,value
rabbit SAMD1 fragment from a.a. 238 to the C-terminus end at a.a. 550 (domain or fragment) QQPQPPPEGGAARAGGPARPVSLREVVRYLGGSSGAGGRLTRGRVQGLLEEEAAARGRLERTRLGALALPRGDRPGRAPPAASARAARNKRAGEERVLEKEEEEEEEEDDEDDDDDVVSEGSEVPESDRPAGAQHHQLNGGERGPQTAKERAKEWSLCGPHPGQEEGRGPAAGSGTRQVFSMAALSKEGGSASSTTGPDSPSPVPLPPGKPALPGADGTPFGCPAGRKEKPADPVEWTVMDVVEYFTEAGFPEQATAFQEQEIDGKSLLLMQRTDVLTGLSIRLGPALKIYEHHIKVLQQGHFEDDDPEGFLG,Kd,15 nM
